Entries after “also recorded” stand apart in the source; their conditions may differ.
Experiments:
[1] = tested on: Xenopus oocytes; experiment: Two-microelectrode voltage clamp of mHCN2 and mE324A expressed in Xenopus oocytes; type: cell-based, Xenopus laevis
Description: Oocytes were prepared from mature female Xenopus laevis in accordance with an approved protocol as previously described (Yu et al., 2004).
For expression of HCN in Xenopus oocytes, oocytes were injected with 5 ng of cRNA made from mouse wild-type mHCN2 and mutant mHCN2 (E324A) plasmids. Injected oocytes were incubated at 18° C. for 24-48 h prior to electrophysiological analysis.
For measurements in Xenopus oocytes, oocytes were voltage-clamped using a two-microelectrode voltage clamp technique. The extracellular recording solution (OR2) contained (in mM): NaCl, 80; KCl, 2; MgCl2, 1; and Na-HEPES, 5 (pH 7.6). For the recording of steady state activation of expressed Wt mHCN2, currents were elicited by 2-s long hyperpolarizing pulses between −30 mV and −160 mV with 10 mV increments, followed by a 1-s depolarizing pulse to +15 mV. The holding potential was −30 mV. As to the mHCN2 (E324A), currents were elicited by 3-s-long hyperpolarizing pulses between +20 mV and −130 mV with 10 mV increments, followed by a 1 second depolarizing pulse to +50 mV. The holding potential was +20 mV. To construct the current/voltage relationship for wildtype (Wt) mHCN2, the cell was held at […], the current was elicited by a 2-s hyperpolarizing voltage step to −140 mV to saturate activation, and followed by 2-s depolarizing voltage steps between […] and +50 mV in 10 mV increments. For mHCN2 (E324A), the cell was held at +20 mV, current was elicited by a 1.5-s hyperpolarizing voltage step to −110 mV to saturate activation, and then followed by 1.5-s depolarizing voltage steps between −80 mV and +50 mV in 10 mV increments for the recording of tail currents. To record the current amplitudes for Wt mHCN2, the current was evoked by applying a 3-s hyperpolarizing voltage pulse to −120 mV from a holding potential of −30 mV. For mHCN2 (E324A), the current was evoked by applying a 3-s hyperpolarizing voltage pulse to −120 mV from a holding potential of +20 mV.

[2] = tested on: neonatal ventricular myocytes; experiment: Voltage clamp (tail currents) of HCN2 expressed with AdHCN2 in neonatal ventricular myocytes; type: cell-based, rat
Description: For increased expression efficiency, an adenoviral construct for mHCN2 was prepared. Gene delivery and transfer procedures followed previously published methods (Ng et al., 2000; He et al., 1998). A DNA fragment (between EcoRI and XbaI restriction sites) that included mHCN2 DNA downstream of the CMV promoter was obtained from plasmid pTR-mHCN2 (Santoro and Tibbs, 1999) and subcloned into the shuttle vector pDC516 (AdMax™; Microbix Biosystems, Toronto, Canada). The resulting pDC516-mHCN2 shuttle plasmid was co-transfected with a 35.5 kb El-deleted Ad genomic plasmid pBHGΔE1,3FLP (AdMax™) into El-complementing HEK293 cells. […]
The whole-cell voltage clamp technique was employed to record native If or expressed IHCN2 or IHCN4. Action potentials were recorded in current clamp mode, again using a whole cell patch electrode. […]
The activation relation of the native or expressed current can be determined from the steady-state I-V relation. In this case, the reversal potential (Vf) was separately determined from the fully activated I-V relation (Accili et al., 1991) and used to generate the activation relation (y=I/(gmax*(V−Vf)), where gmax is the maximal conductance). […] Tail currents were measured at a negative voltage (−125 mV) to avoid contamination by transient outward and other currents at less negative voltages. […]

B1: mHCN2: mouse HCN2 hyperpolarization-activated, cyclic nucleotide-gated channel, wild type (GenBank AJ225122) (protein)
chain: MDARGGGGRPGDSPGTTPAPGPPPPPPPPAPPQPQPPPAPPPNPTTPSHPESADEPGPRARLCSRDSACTPGAAKGGANGECGRGEPQCSPEGPARGPKVSFSCRGAASGPSAAEEAGSEEAGPAGEPRGSQASFLQRQFGALLQPGVNKFSLRMFGSQKAVEREQERVKSAGAWIIHPYSDFRFYWDFTMLLFMVGNLIIIPVGITFFKDETTAPWIVFNVVSDTFFLMDLVLNFRTGIVIEDNTEIILDPEKIKKKYLRTWFVVDFVSSIPVDYIFLIVEKGIDSEVYKTARALRIVRFTKILSLLRLLRLSRLIRYIHQWEEIFHMTYDLASAVMRICNLISMMLLLCHWDGCLQFLVPMLQDFPSDCWVSINNMVNHSWSELYSFALFKAMSHMLCIGYGRQAPESMTDIWLTMLSMIVGATCYAMFIGHATALIQSLDSSRRQYQEKYKQVEQYMSFHKLPADFRQKIHDYYEHRYQGKMFDEDSILGELNGPLREEIVNFNCRKLVASMPLFANADPNFVTAMLTKLKFEVFQPGDYIIREGTIGKKMYFIQHGVVSVLTKGNKEMKLSDGSYFGEICLLTRGRRTASVRADTYCRLYSLSVDNFNEVLEEYPMMRRAFETVAIDRLDRIGKKNSILLHKVQHDLSSGVFNNQENAIIQEIVKYDREMVQQAELGQRVGLFPPPPPPQVTSAIATLQQAVAMSFCPQVARPLVGPLALGSPRLVRRAPPGPLPPAASPGPPAASPPAAPSSPRAPRTSPYGVPGSPATRVGPALPARRLSRASRPLSASQPSLPHGVPAPSPAASARPASSSTPRLGPAPTARTAAPSPDRRDSASPGAASGLDPLDSARSRLSSNL
For B1, the “voltage at which currents saturated” value [1] was “around −130 mV”, the “slope (s) with cAMP” value ([1]; 8-Br-cAMP 1 mM) was 9.5 mV and the “Vh with cAMP” value ([1]; 8-Br-cAMP 1 mM extracellular) was −84.9 mV. The “effect of Cs+ on inward current” value ([1]; Cs+ 5 mM) was “blocked; also recorded: large inhibition”, the “slope (s), control” value ([1]; control) was 13.9 mV and the “activation more negative than mE324A” value ([1]; oocytes) was 35 mV. The “half maximal activation (Vh), control” value ([1]; oocytes, control) was −92.7 mV, the induced current ([1]; single voltage pulse to −120 mV) was 912.7±63.7 nA and the “shift of voltage dependence by saturating cAMP, neonate” value ([2]; 10 μM cAMP in the pipette) was 17 mV. The “slope factor (K), neonatal myocytes” value ([2]; AdHCN2) was 9.8±0.6 mV.

From US20070099268A1, “Chimeric HCN channels” (priority 2005, published 2007)
